Reference: patent US10772928B2, “Modulation and detection of a neuronal alternative splicing regulatory network for treatment and diagnosis of neurological disorders” (The Governing Council of the University of Toronto, priority 2014, dated 2020)
One block for each molecule: values may come before it.

Target: T1, nSR100 (Mus musculus, UniProt Q8BKA3)
T1 construct: host or cells: mouse N2A cells
T1 sequence (Q8BKA3 1-608): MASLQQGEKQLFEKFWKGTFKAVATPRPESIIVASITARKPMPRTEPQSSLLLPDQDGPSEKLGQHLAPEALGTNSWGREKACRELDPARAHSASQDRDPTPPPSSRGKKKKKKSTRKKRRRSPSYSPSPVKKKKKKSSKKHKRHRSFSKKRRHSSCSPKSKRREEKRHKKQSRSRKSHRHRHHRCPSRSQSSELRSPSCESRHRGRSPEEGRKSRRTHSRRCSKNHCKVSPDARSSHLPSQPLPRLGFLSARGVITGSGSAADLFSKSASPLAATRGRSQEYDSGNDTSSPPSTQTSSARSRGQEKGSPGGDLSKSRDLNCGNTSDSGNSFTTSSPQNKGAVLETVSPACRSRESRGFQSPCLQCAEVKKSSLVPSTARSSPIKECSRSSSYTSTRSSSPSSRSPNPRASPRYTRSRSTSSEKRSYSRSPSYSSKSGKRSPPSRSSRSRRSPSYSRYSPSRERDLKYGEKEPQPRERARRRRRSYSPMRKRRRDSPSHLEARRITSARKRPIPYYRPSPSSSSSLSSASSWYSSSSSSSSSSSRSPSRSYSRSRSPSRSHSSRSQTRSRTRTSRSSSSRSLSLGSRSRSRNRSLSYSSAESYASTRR
Assay: AP-MS nSR100 interaction partners from mouse N2A cells (Table 5)
Type: binding
Conditions: for AvgP (average of the SAINT scores) / MaxP (maximal SAINT score): bait Srrm4; for FoldChange between the prey Avg spectra of the bait and control purifications: bait Srrm4, 0.1 added to prevent division by 0; for AvgSpec (average number of spectra per replicate): bait Srrm4, 2 replicates; for Spectra (number of spectra for the prey in the purification of the bait): AP-MS; for SpecSum: bait Srrm4, sum of spectra over 2 replicates

[1] = bait Srrm4, biological replicate 1 (first number of the cell)
[2] = bait Srrm4, biological replicate 2 (second number of the cell)

Excerpt: By applying affinity purification coupled to mass-spectrometry (AP-MS), several interaction nSR100 partner proteins were detected that provide insight into mechanisms of post-translational regulation of nSR100 levels.

B1: Rnps1 (protein, UniProt Q99M28 1-305, looked up)
RNA-binding protein with …: MDLSGVKKKSLLGVKENNKKSSTRAPSPTKRKDRSDEKSKDRSKDKGATKESSEKDRGRDKTRKRRSASSGSSSTRSRSSSTSSSGSSTSTGSSSGSSSSSASSRSGSSSTSRSSSSSSSSGSPSPSRRRHDNRRRSRSKSKPPKRDEKERKRRSPSPKPTKVHIGRLTRNVTKDHIMEIFSTYGKIKMIDMPVERMHPHLSKGYAYVEFENPDEAEKALKHMDGGQIDGQEITATAVLAPWPRPPPRRFSPPRRMLPPPPMWRRSPPRMRRRSRSPRRRSPVRRRSRSPGRRRHRSRSSSNSSR
AvgP (average of the SAINT scores): 1 | MaxP (maximal SAINT score): 1 | FoldChange between the prey Avg spectra of the bait and control purifications: 17 | AvgSpec (average number of spectra per replicate): 25.5 | Spectra (number of spectra for the prey in the purification of the bait) [1]: 26 | Spectra (number of spectra for the prey in the purification of the bait) [2]: 25 | SpecSum: 51

B2: Plk1 (protein, UniProt Q07832 1-603, looked up)
Serine/threonine-protein …: MNAAAKAGKLARAPADLGKGGVPGDAVPGAPVAAPLAKEIPEVLVDPRSRRQYVRGRFLGKGGFAKCFEISDADTKEVFAGKIVPKSLLLKPHQKEKMSMEISIHRSLAHQHVVGFHDFFEDSDFVFVVLELCRRRSLLELHKRRKALTEPEARYYLRQIVLGCQYLHRNQVIHRDLKLGNLFLNEDLEVKIGDFGLATKVEYEGERKKTLCGTPNYIAPEVLSKKGHSFEVDVWSIGCIMYTLLVGKPPFETSCLKETYLRIKKNEYSIPKHINPVAASLIQKMLQTDPTARPTIHELLNDEFFTSGYIPARLPITCLTIPPRFSIAPSSLDPSSRKPLKVLNKGVENPLPDRPREKEEPVVRETNEAIECHLSDLLQQLTSVNASKPSERGLVRQEEAEDPACIPIFWVSKWVDYSDKYGLGYQLCDNSVGVLFNDSTRLILYNDGDSLQYIERDGTESYLTVSSHPNSLMKKITLLNYFRNYMSEHLLKAGANITPREGDELARLPYLRTWFRTRSAIILHLSNGTVQINFFQDHTKLILCPLMAAVTYINEKRDFQTYRLSLLEEYGCCKELASRLRYARTMVDKLLSSRSASNRLKAS
AvgP (average of the SAINT scores): 1 | MaxP (maximal SAINT score): 1 | FoldChange between the prey Avg spectra of the bait and control purifications: 430 | AvgSpec (average number of spectra per replicate): 43 | Spectra (number of spectra for the prey in the purification of the bait) [1]: 43|43 | Spectra (number of spectra for the prey in the purification of the bait) [2]: 43|43 | SpecSum: 86

B3: Prpf4b (protein, UniProt Q61136 2-1007, looked up)
Serine/threonine-protein …: AATEPPSLREQAEMDDADNSEKSVNEENGEVSEDQSQNKHSRHKKKKHKHRSKHKKHKHSSEEDRDKKHKHKHKHKKHKRKEVIEASDKEGLSPAKRTKLDDLALLEDLEKQRALIKAELDNELMEGKVQSGMGLILQGYESGSEEEGEIHEKARNGNRSSTRSSSTRGKLEITDNKNSAKKRSKSRSKERTRHRSDKRKSKGAGEMLREKANRSKSKERRKSKSPSKRSKSQDQARKSKSPPLRRRSQEKVGKARSPAEEKMKSEEKGKIKDRKKSPIVNERSRDRSKKSKSPVDLRDKSKDRRSRSKERKSKRSEIDKEKKPIKSPSKDASSGKENRSPSRRPGRSPKRRSLSPKLRDKSRRSRSPLLNDRRSKQSKSPSRTLSPGRRAKSRSLERKRREPERRRLSSPRTRPRDDILGRCERSKDASPINRWSPTRRRSRSPIRRRSRSPLRRSRSPRRRSRSPRRRDRSRRSRSRLRRRSRSRGGHRRRSRSKVKEDKFKGSLSEGMKVEQESSSDDNLEDFDVEEEDEEALIEQRRIQRQAIVQKYKYLAEDSNISVPSEPSSPQSSTRSRSPSPDDILERVAADVKEYERENVDTFEASVKAKHNLMTVEQNNGSSQKKILAPDMFTESDDMFAAYFDSARLRAAGIGKDFKENPNLRDNWTDAEGYYRVNIGEVLDKRYNVYGYTGQGVFSNVVRARDNARANQEVAVKIIRNNELMQKTGLKELEFLKKLNDADPDDKFHCLRLFRHFYHKQHLCLVFEPLSMNLREVLKKYGKDVGLHIKAVRSYSQQLFLALKLLKRCNILHADIKPDNILVNESKTILKLCDFGSASHVADNDITPYLVSRFYRAPEIIIGKSYDYGIDMWSVGCTLYELYTGKILFPGKTNNHMLKLAMDLKGKMPNKMIRKGVFKDQHFDQNLNFMYIEVDKVTEREKVTVMSTINPTKDLLADLIGCQRLPEDQRKKVHQLKDLLDQILMLDPAKRISINQALQHAFIQEKI
AvgP (average of the SAINT scores): 1 | MaxP (maximal SAINT score): 1 | FoldChange between the prey Avg spectra of the bait and control purifications: 45 | AvgSpec (average number of spectra per replicate): 4.5 | Spectra (number of spectra for the prey in the purification of the bait) [1]: 4 | Spectra (number of spectra for the prey in the purification of the bait) [2]: 5 | SpecSum: 9

Results, then the molecule that gave them:

AvgP (average of the SAINT scores): 1 | MaxP (maximal SAINT score): 1 | FoldChange between the prey Avg spectra of the bait and control purifications: 3.45 | AvgSpec (average number of spectra per replicate): 112 | Spectra (number of spectra for the prey in the purification of the bait) [1]: 92 | Spectra (number of spectra for the prey in the purification of the bait) [2]: 132 | SpecSum: 224
B4: Sf3b1 (protein, UniProt Q99NB9 1-1304, looked up)
Splicing factor 3B subunit 1: MAKIAKTHEDIEAQIREIQGKKAALDEAQGVGLDSTGYYDQEIYGGSDSRFAGYVTSIAATELEDDDDDYSSSTSLLGQKKPGYHAPVALLNDIPQSTEQYDPFAEHRPPKIADREDEYKKHRRTMIISPERLDPFADGGKTPDPKMNARTYMDVMREQHLTKEEREIRQQLAEKAKAGELKVVNGAAASQPPSKRKRRWDQTADQTPGATPKKLSSWDQAETPGHTPSLRWDETPGRAKGSETPGATPGSKIWDPTPSHTPAGAATPGRGDTPGHATPGHGGATSSARKNRWDETPKTERDTPGHGSGWAETPRTDRGGDSIGETPTPGASKRKSRWDETPASQMGGSTPVLTPGKTPIGTPAMNMATPTPGHIMSMTPEQLQAWRWEREIDERNRPLSDEELDAMFPEGYKVLPPPAGYVPIRTPARKLTATPTPLGGMTGFHMQTEDRTMKSVNDQPSGNLPFLKPDDIQYFDKLLVDVDESTLSPEEQKERKIMKLLLKIKNGTPPMRKAALRQITDKAREFGAGPLFNQILPLLMSPTLEDQERHLLVKVIDRILYKLDDLVRPYVHKILVVIEPLLIDEDYYARVEGREIISNLAKAAGLATMISTMRPDIDNMDEYVRNTTARAFAVVASALGIPSLLPFLKAVCKSKKSWQARHTGIKIVQQIAILMGCAILPHLRSLVEIIEHGLVDEQQKVRTISALAIAALAEAATPYGIESFDSVLKPLWKGIRQHRGKGLAAFLKAIGYLIPLMDAEYANYYTREVMLILIREFQSPDEEMKKIVLKVVKQCCGTDGVEANYIKTEILPPFFKHFWQHRMALDRRNYRQLVDTTVELANKVGAAEIISRIVDDLKDEAEQYRKMVMETIEKIMGNLGAADIDHKLEEQLIDGILYAFQEQTTEDSVMLNGFGTVVNALGKRVKPYLPQICGTVLWRLNNKSAKVRQQAADLISRTAVVMKTCQEEKLMGHLGVVLYEYLGEEYPEVLGSILGALKAIVNVIGMHKMTPPIKDLLPRLTPILKNRHEKVQENCIDLVGRIADRGAEYVSAREWMRICFELLELLKAHKKAIRRATVNTFGYIAKAIGPHDVLATLLNNLKVQERQNRVCTTVAIAIVAETCSPFTVLPALMNEYRVPELNVQNGVLKSLSFLFEYIGEMGKDYIYAVTPLLEDALMDRDLVHRQTASAVVQHMSLGVYGFGCEDSLNHLLNYVWPNVFETSPHVIQAVMGALEGLRVAIGPCRMLQYCLQGLFHPARKVRDVYWKIYNSIYIGSQDALIAHYPRIYNDDKNTYIRYDLDYIL

AvgP (average of the SAINT scores): 1 | MaxP (maximal SAINT score): 1 | FoldChange between the prey Avg spectra of the bait and control purifications: 160 | AvgSpec (average number of spectra per replicate): 16 | Spectra (number of spectra for the prey in the purification of the bait) [1]: 13 | Spectra (number of spectra for the prey in the purification of the bait) [2]: 19 | SpecSum: 32
B5: Wdr6 (protein, UniProt Q99ME2 1-1125, looked up)
tRNA …: MDAFGDYVWPRATSELILLPVTGLECVGDRLLAGEGPDLLVYNLDLGGHLRMVKRVQNLLGHFLIHGFRVRPEPKGDLDSEAMIAVFGSKGLKVVKVSWGQSHLRELWRSGLWNMSDWIWDVRWIEGNVAVALGHNSVVLYDPVIGCMLQDVPCTDRCTLSSACLVGDTWKELTIVAGAVSNELLIWYPATALTDNKPVAPDRRVSGHVGVIFSMSYLESKGLLATASEDRSVRLWKVGDLRVPGGRVQNIGHCFGHSARVWQVKLLENYLISAGEDCVCLVWSHEGEILQAFRGHRGRGIRAIATHERQAWVVTGGDDSGIRLWHLAGRGYPGLGVSSLSFKSPSRPGALKAVTLAGSWRVLAVTDVGSLYLYDLEVKSWEQLLEDNRFRSYCLLEAAPGPEGFGLCALANGEGLVKVVPINTPTAAVEQKLFQGKVHSLSWALRGYEELLLLASGPGGVIACLEISAAPTGKAIFVKERCRYLLPPSKQRWHTCSAFLPPGDFLVCGDRRGSVMLFPVRPCLFKKPGAGSKAITAAEAPGAGSGSGGSESVPTGIGPVSTLHSLHGKQGVTSVTCHGGYLYSTGRDSSYFQLFVHGGHLQPVLRQKACRGMNWVAGLRMVPDGSMVILGFHANEFVVWSPRSHEKLHIVNCGGGHRSWAFSDTEAAMAFTYLKDGEVMLYRALGGCIRPNVILREGLHGREITCVKRVGTVTLGPEFEVPNLEHPDSLEPGSEGPGLIDIVITGSEDTTVCVLALPTTTGSAHALTSVCNHISSVRALAVWAVGTPGGPQDTRPGLTAQVVSAGGRAEIHCFSVMVTPDASTPSRLACHVMHLSSHRLDEYWDRQRNKHKMIKVDPETRYMSLAICELDNDRPGLGPGPLVAAACSDGAVRLFLLQDSGRILHLLAESFHHKRCVLKVHSFTHEAPNQRRRLILCSAATDGSLAFWDLTTAMDKGSTTLELPAHPGLPYQMGTPSMTVQAHSCGVNSLHTLPTPEGHHLVASGSEDGSLHVFTLAVKMPEPEEADGEAELVPQLCVLEEYSVPCAHAAHVTGVKILSPKLMVSASIDQRLTFWRLGQGEPTFMNSTVYHVPDVADMDCWPVSPEFGHRCALAGQGLEVYNWYD
